Test results as given in patent US20210292393A1 (published 2021).
Changes are numbered by the printed parent chain.

B1: antibody 331 (antibody, V domains shown)
V domain 1: QITLKESGPTLVKPTETLTLTCSFSGFSLTKTGEAAGWIRQAPGRALEWVTVIFWDDDKRYSPSLQNRISVTKDTSKNQVVLRMTNVARFDTGTYFCWAMGGPGKEYFGQGTLVAVSS
V domain 2: QSVLTQPPSVSGAPGQRVTISCTGTSSSIGPYSDVHWYQHVSGKAPRLLIFGNSNRPSGVPDRFSGSKSGTSASLVIAGLQAEDEADYYCQSYDSSLGEIYVFGTGTTVTVL
B2: antibody 339 (antibody, V domains shown)
V domain 1: B1 V domain 1 with K31R, N67S, I69L, S70T, R83T, G93A, L113Q
V domain 2: B1 V domain 2
B3: antibody 332 (antibody, V domains shown)
VH: QVTLRESGPALVKPTQTLTLTCTFSGFSLSTSGMCVSWIRQPPGKALEWLALIDWDDDKYYSTSLKTRLTISKDTSKNQVVLTMTNMDPVDTATYYCARIHDDILTGYHYVDYWGQGTLVTVSS
VL: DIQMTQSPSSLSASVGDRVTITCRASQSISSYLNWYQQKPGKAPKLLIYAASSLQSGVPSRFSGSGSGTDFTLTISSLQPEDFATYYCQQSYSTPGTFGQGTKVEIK
B4: antibody 333 (antibody, V domains shown)
VH: QVHLVESGGGVVLPGRSLRLSCSASQFIFSNYDMHWVRQSPGMGLEWVAGISSDGSDKYYIDSVRGRFTISRDNAKNTLFLQMNSLTTEDTAVYSCAKGGGKFGQYWGRGTLVTVSS
VL: AIQMTQSPSSLSASVGDRVTITCRASQVIRNDLAWFQQKPGEAPNLLVYSASNLQSGVPSRFSGSGSGTDFTLTISSLQPEDFATYYCLQDYSYPYTFGQGTKLDMK
B5: antibody 337 (antibody, V domains shown)
VH: QVQLVESGGGVVQPGRSLRLSCAASGFTFSSYGMHWVRQAPGKGLEWVAIIWYDGSNKYYADSVKGRFTISRDNSKNTLYLQMNSLRAEDTAVYYCAKDTGGYCSGGSCYPESYFDYWGQGTLVTVSS
VL: SYVLTQPPSVSVAPGKTARITCGGNNIGSKSVHWYQQKPGQAPVLVIYYDSDRPSGIPERFSGSNSGNTATLTINRVEAGDEADYYCQVWDGSSDHLYVFGTGTKVTVL
B6: antibody 340 (antibody, V domains shown)
VH: QVQLVQSGAEVKKPGASVKVSCKASGYTFTSYDINWVRQATGQGLEWMGWMNPNSGNTGYAQKFQGRVTMTRNTSISTAYMELSSLRSEDTAVYYCARGRYCTGGVCWGDWYFDLWGRGTLVTVSS
VL: QSVLTQPPSVSGAPGQRVTISCTGSSSNIGAGYDVHWYQQLPGTAPKFLIYGNSNRPSGVPDRFSGSKSGTSASLAITGLQAEDEADYYCQSYDSSLSGPVFGGGTKLTVL
B7: antibody 342 (antibody, V domains shown)
VH: EVQLVQSGAEVKKPGATVKISCKVSGYTFTDYYMHWVQQAPGKGLEWMGLVDPEDGETIYAEKFQGRVTITADTSTDTAYMELSSLRSEDTAVYYCATGGVSVWFREFPASYSGSYLGYWGQGTLVTVSS
VL: not shown
B8: antibody 343 (antibody, V domains shown)
VH: QVQLVESGGDVVQPGTSLRLSCAASGFTFNNYGFHWVRQAPGKGLEWVALISSDGASTHYADSVKGRFTISRDSSVNTLYLQMNSLSLEDTAVYYCATGHCGTTCYYFDYWGQGTLVSVSS
VL: DIQVTQSPSYLSASVGDRVTITCRASQTISTFLQWYQQKVGKAPKLLIYAASTLQSGVPSRFSGSGSGTDFSLTISSLQPEDFATYYCQQSYSAPLSFGGGTKVEIK
B9: antibody 345 (antibody, V domains shown)
VH: QVQLQESGPGLVKPSQTLSLTCTVSGGSISSGDYYWSWIRQPPGKGLEWIGYIYYSGSTYYNPSLKSRVTISVDTSKNQFSLKLSSVTAADTAVYYCARVGMVDNWNFEGNWFDPWGQGTLVTVSS
VL: QSALTQPRSVSGSPGQSVTISCTGTSSDVGGYNYVSWYQQHPGKAPKLMIYDVSKRPSGVPDRFSGSKSGNTASLTISGLQAEDEADYYCCSYAGSVVFGGGTKLTVL
B10: antibody 348 (antibody, V domains shown)
VH: QVQLVQSGSELKKPGASVKVSCKASGYTFTSYAMNWVRQAPGQGLEWMGWINTNTGNPTYAQGFTGRFVFSLDTSVSTAYLQISSLKAEDTAVYYCARDHELPNTSSWFGHFEYWGQGTLVTVSS
VL: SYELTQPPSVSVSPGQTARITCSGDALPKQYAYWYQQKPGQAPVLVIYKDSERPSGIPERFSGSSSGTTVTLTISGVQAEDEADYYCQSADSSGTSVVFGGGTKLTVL
B11: antibody 349 (antibody, V domains shown)
VH: EVQLVQSGAEVKKPGATVKISCKVSGYTFTDYYMHWVQQAPGKGLEWMGLVDPEDGETIYAEKFQGRVTITADTSTDTAYMELSSLRSEDTAVYYCATENKVPTIIAAAGTRDYYYYGMDVWGQGTTVTVSS
VL: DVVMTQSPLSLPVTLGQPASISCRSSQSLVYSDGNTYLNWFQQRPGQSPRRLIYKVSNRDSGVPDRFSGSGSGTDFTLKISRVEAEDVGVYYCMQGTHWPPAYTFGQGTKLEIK
B12: antibody 351 (antibody, V domains shown)
VH: HVQLVESGGGVVQPGRSLRLSCAASGFISRNYGMEWVRQAPGQGLEWVAGIWYDGSKKYYADSVKGRFTISRDTSKNTLFLQMDSLRAEDTAVFYCATATKTFCGGDCPPGGMDVWGQGTTVTVST
VL: SYVLTQPPSVSVAPGKTAWITCVGNNIESESVHWYQQRPGQAPVLVIYYDSDRPSGIPERFFGSNSGNTATLTISRVEAGDEADYYCQVWDSNSDLMVFGGGTKLTVL
B13: antibody 363 (antibody, V domains shown)
VH: EVQLLESGGGLVQPGGSLRLSCAASGFTFSTYAMSWVRQAPGKGLEWVSAISGSGGSTYYADSVKGRFTISRDNSKNTLYLQMNSLRAEDTAVYYCASGYSPDYWGQGTLVTVSS
VL: not shown
B14: antibody 366 (antibody, V domains shown)
VH: QVQLVESGGGVVQPGRSLRLSCAASGFTFSSYAMHWVRQAPGKGLEWVAVISYDGSNKYYADSVKGRFTISRDNSKNTLYLQMNSLRAEDTAVYYCARGLVGYNWFDPWGQGTLVTVSS
VL: DIQMTQSPSSVSASVGDRVTITCRASQGISSWLAWYQQKPGKAPKLLIYAASSLQSGVPSRFSGSGSGTDFTLTISSLQPEDFATYYCQQANSFTFGPGTKVDIK
B15: antibody 367 (antibody, V domains shown)
VH: QVQLVQSGAEVKKPGASVKVSCKASGYTFTGYYIHWVRQAPGQGLEWMGWINPNSGGTIYAQKFQGRVTMTRDTSISTAYMELSRLTSDDTAVYSCAREPYYDILTGYYAPRRYFDYWGQGTLVTVSS
VL: QSALTQPASVSGSPGQSITISCTGTSSDVGSYNYVSWYLQHPGKAPKLMIYDVSNRPSGVSNRFSGSKSGNTASLTISGLQAEDEADFYCSSYTSRSTYVFGTGTKVTVL
B16: antibody 368 (antibody, V domains shown)
V domain 1: QITLKESGPTLVKPTETLTLTCAFSGFSLTKTGEAAGWIRQAPGRALEWVTVIFWDDDKRYSPSLQNRLTVTKDTSKNVVVLTMTNVDPVDTATYFCWAMGGPGKEFFGQGTRVAVSS
V domain 2: B1 V domain 2 with I20V, V41I, S42P, N53T, D62A, T71S
B17: antibody 372 (antibody, V domains shown)
VH: QVQLVESGGGVVQPGRSLRLSCAASGFTFSSYAMHWVRQAPGKGLEWVAVISYDGSNKYYADSVKGRFTISRDNSKNTLYLQMNSLRAEDTAVYYCARDLGTSALLWFGELFLNYGMDVWGQGTTVTVSS
VL: QSALTQPRSVSGSPGQSVTISCTGTSSDVGGYNYVSWYQQHPGKAPKLMIYDVSKRPSGVPDRFSGSKSGNTASLTISGLQAEDEADYYCCSYAGSPILVFGGGTKLTVL
B18: antibody 379 (antibody, V domains shown)
VH: QVQLQESGPGLVKPSQTLSLTCTVSGGSISSGGYYWSWIRQHPGKGLEWIGYIYYSGSTYYNPSLKSRVTISVDTSKNQFSLKLSSVTAADTAVYYCARGPLDFWSGYFRLRYFDSWGQGTLVTVSS
VL: B15 VL with S31G, L39Q, S54T, F88Y, R96S, Y99C
B19: antibody 380 (antibody, V domains shown)
VH: QVQLVESGGGVVQPGRSLRLSCAASGFTLKNYGMHWVRQAPGKGLEWVIVLSFDGSDEYKADSVRGRFTVSRDNSKNTLFLQMNSLRPDDTAVYYCAREQPTMIEGGRGPFDIWGQGTMVTVSS
VL: EVVMTQSPATLSVSPGDRATLSCRASQGVNSNLAWYQQKPGQAPRLLIYAASTRATGIPARFSASGSGTHFTLTISSLQSEDFAVYYCLQYNNWPPWTFGQGTKLEIK
B20: anti-SARS-CoV-2 antibody 292 (antibody, V domains shown)
VH: EVQLVESGGGLIQPGGSLRLSCAASGFTVSSNYMSWVRQAPGKGLEWVSVIYSGGSTYYADSVKGRFTISRDNSKNTLYLQMNSLRAEDTAVYYCARDLQGGGGPWGQGTLVTVSS
VL: AIQMTQSPSSLSASVGDRVTITCRASQGIRNDLGWYQQKPGKAPKLLIYAASSLQSGVPSRFSGSGSGTDFTLTISSLQPEDFATYYCLQDYNYPRTFGQGTKVEIKR
B21: anti-SARS-CoV-2 antibody 447 (antibody, V domains shown)
VH: B20 VH with I12V, L99K, Q100S, G101S, G103S
VL: B20 VL
B22: anti-SARS-CoV-2 antibody 364 (antibody, V domains shown)
VH: EVQLVESGGGLVQPGRSLRLSCTASGFTFGDYAMSWFRQAPGKGLEWVGFIRSKAYGGTTEYAASVKGRFTISRDDSKSIAYLQMNSLKTEDTAVYYCTRFGIDYDYIWGSYRYTTLFDYWGQGTLVTVSS
VL: not shown
B23: anti-SARS-CoV-2 antibody 408 (antibody, V domains shown)
VH: QVQLVESGGGVVQPGRSLRLSCAASGFTFSSYAMHWVRQAPGKGLEWVAVISYDGSNKYYADSVKGRFTISRDNSRNTLYLQMNSLRAEDTAVYYCAKGADTPHYSGYDFLSVGYYYYGMDVWGQGTTVTVSS
VL: DIQMTQSPSSLSASVGDRVTITCRASQSISSYLNWYQQKPGKAPKLLIYAASSFQSGVPSRFSGSRSGTDFTLTISSLQPEDFATYYCQQSYSAPFTFGPGTKVDIKR
B24: anti-SARS-CoV-2 antibody 419 (antibody, V domains shown)
VH: QVQLVQSGAEVKKPGASVKVSCKASGYTFTSYYMHWVRQAPGQGLEWMGIINPSGGSTSYAQKFQGRVTMTRDTSTSTVYMELSSLRSEDTAVYYCARDWTQSSGYDYYYGLDVWGQGTTVTVSS
VL: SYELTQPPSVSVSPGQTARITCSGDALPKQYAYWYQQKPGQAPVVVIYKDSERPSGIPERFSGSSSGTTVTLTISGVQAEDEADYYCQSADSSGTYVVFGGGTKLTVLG

Each binder was assayed against SARS-CoV spike protein (SARS-CoV, UniProt P59594 14-1190) (assay: not given).

Row | Binder | median fluorescence intensity, fold over isotype control
1 | B1 | 1.34 fold over isotype
2 | B2 | 1.27 fold over isotype
3 | B3 | 0.99 fold over isotype
4 | B4 | 1.21 fold over isotype
5 | B5 | 439 fold over isotype
6 | B6 | 1.26 fold over isotype
7 | B7 | 1.16 fold over isotype
8 | B8 | 1.19 fold over isotype
9 | B9 | 1.09 fold over isotype
10 | B10 | 1.16 fold over isotype
11 | B11 | 1.12 fold over isotype
12 | B12 | 1.08 fold over isotype
13 | B13 | 1.09 fold over isotype
14 | B14 | 1.23 fold over isotype
15 | B15 | 1.08 fold over isotype
16 | B16 | 1.09 fold over isotype
17 | B17 | 1.08 fold over isotype
18 | B18 | 5.9 fold over isotype
19 | B19 | 1.21 fold over isotype

These binders were tested against SARS-CoV-2 full-length spike protein on pseudotyped lentivirus (SARS-CoV-2, UniProt P0DTC2 14-1273) (assay: cell-based or functional assay).

Row | Binder | IC50 (pseudoneutralization) | IC80 (pseudoneutralization)
20 | B20 | > 50 µg/mL | > 50 µg/mL
21 | B21 | > 50 µg/mL | > 50 µg/mL
22 | B22 | > 50 µg/mL | > 50 µg/mL
23 | B23 | > 50 µg/mL | > 50 µg/mL
24 | B24 | > 50 µg/mL | > 50 µg/mL
